Data reported in patent US20250136696A1 (HARBOUR BIOMED SHANGHAI, published 2025).

Columns and labels:
[1] = target: T1, biotinylated human B7-H7 protein (Acro Biosystems, B77-H82F5) (human, UniProt Q9UM44 23-344, biotinylated); experiment: flow cytometry, blocking of biotinylated human B7-H7 binding to CHO-K1/KIR3DL3 cells
T1 construct: Bought soluble protein; also called biotin-B7H7 protein
T1 sequence (looked up): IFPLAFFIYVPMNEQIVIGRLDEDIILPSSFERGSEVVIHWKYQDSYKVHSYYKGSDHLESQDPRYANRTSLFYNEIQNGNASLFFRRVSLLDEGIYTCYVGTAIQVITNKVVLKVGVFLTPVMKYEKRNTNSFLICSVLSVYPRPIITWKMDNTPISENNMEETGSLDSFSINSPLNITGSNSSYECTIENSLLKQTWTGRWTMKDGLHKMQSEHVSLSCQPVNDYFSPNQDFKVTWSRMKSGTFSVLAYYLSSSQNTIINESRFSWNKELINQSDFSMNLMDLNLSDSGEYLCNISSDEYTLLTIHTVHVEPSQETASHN
From the text: (§1) This example was intended to study the in vitro blocking activity of human anti-B7-H7 antibodies against the binding of human B7-H7 to its receptor KIR3DL3. A CHO-K1 cell (CHO-K1/KIR3DL3, Harbour BioMed US, Inc.) overexpressing human KIR3DL3 was used in experiments at the cellular level where human B7-H7/human KIR3DL3 binding was blocked. Briefly, the CHO-K1/KIR3DL3 cells were digested and resuspended in PBS containing 2% BSA. The cells were adjusted to a cell density of 1×10⁶ cells/mL. […] The cells were incubated at 4° C. for 1 hour in the dark. […] The cells were rinsed twice by adding pre-chilled PBS containing 2% BSA at 100 μL/well, and were centrifuged at 500 g at 4° C. for 5 minutes, and the supernatant was discarded. A fluorescent secondary antibody (PE Streptavidin, BD, Cat #: 554061, 1:200) was added at 100 μL/well, and the cells were incubated at 4° C. for 30 minutes in the dark. The cells were washed twice by adding pre-chilled PBS at 200 µL/well, and centrifuged at 500 g at 4° C. for 5 minutes, and the supernatant was discarded. Finally, the cells were resuspended in pre-chilled PBS at 200 μL/well, and the fluorescence signal values were read using an ACEA Novocyte3000 flow cytometer. IC50 was calculated.

[2] = target: T1, biotinylated human B7-H7 protein (Acro …); experiment: flow cytometry, blocking of biotinylated human B7-H7 binding to HEK-293/CD28H cells
Description: as §1, with “CD28H. […]” for “KIR3DL3. A CHO-K1 cell (CHO-K1/KIR3DL3, Harbour BioMed US, Inc.) overexpressing human KIR3DL3 was used in experiments at the cellular level where human B7-H7/human KIR3DL3 binding was blocked. Briefly, the CHO-K1/KIR3DL3 cells were digested and resuspended in PBS containing 2% BSA.”, “μL/well,” for “µL/well,”

[3] = target: T2, human B7-H7 recombinant protein (human, UniProt Q9UM44 23-344); experiment: BLI (Octet), antibody captured on AHC sensor, human B7-H7 in solution, 1:1 global fit
T2 construct: also called human B7-H7 protein
T2 sequence (looked up): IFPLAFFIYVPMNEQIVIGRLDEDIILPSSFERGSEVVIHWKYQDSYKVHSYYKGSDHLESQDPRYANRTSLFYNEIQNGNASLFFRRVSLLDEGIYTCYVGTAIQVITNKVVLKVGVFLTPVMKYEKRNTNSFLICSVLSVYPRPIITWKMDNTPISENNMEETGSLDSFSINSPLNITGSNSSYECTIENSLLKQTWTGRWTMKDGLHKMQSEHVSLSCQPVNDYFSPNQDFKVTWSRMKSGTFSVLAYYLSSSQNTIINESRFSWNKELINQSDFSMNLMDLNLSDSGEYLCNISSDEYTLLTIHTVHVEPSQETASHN
Description: The binding kinetics between antigen and antibody was analyzed using an Octet Red 96e (Fortebio) molecular interaction analyzer by biolayer interferometry (BLI) technology.
For determining the affinity of antibodies for antigens, the rotary speed of the sensor was set at 1000 rpm. AHC sensors (Fortebio, #18-5060) placed in one column were first equilibrated in a test buffer for 10 minutes, and then used to capture the anti-B7-H7 antibodies at a capture height of 0.7 nm; and after being equilibrated in the buffer for 120 s, the AHC sensors bound to human B7-H7 (concentrations: 50-3.125 nM and 0 nM) with 2-fold gradient dilution for 180 s and dissociated for 300 s. The AHC sensors were finally regenerated by immersing in a 10 mM glycine-hydrochloric acid solution with pH 1.5 to elute the protein bound to the sensors.
For data analysis using Octet Data Analysis software (Fortebio, version 11.0), 0 nM well was used as the reference well, reference subtraction was performed, “1:1 Global fitting” method was selected for data fitting, the kinetic parameters of the binding of the antigen to the antigen-binding protein were calculated, and the kₒₙ (1/Ms) value, kdis (1/s) value and KD (M) value were obtained.

[4] = target: T1, biotinylated human B7-H7 protein (Acro …); experiment: BLI epitope competition on SA-captured biotinylated B7-H7; competitor (first antibody) PR003249
Description: Epitope competition experiments were performed on the anti-B7-H7 antibodies using the ForteBio Octet Red96e platform with the same experimental buffer as described above. […] After being equilibrated in a buffer for 120 s, the sensors were immersed in various antibodies diluted to 100 nM for 240 s, and the final signal of the antibody binding to B7-H7 was recorded as the 100% signal for that antibody. Second step, epitope competition experiment: B7-H7 was captured using SA sensors at a capture height of 0.25 nm. The sensors were immersed in a first antibody (concentration: 100 nM) for 240 s, then the SA sensors were immersed in a mixture of the first antibody and a second antibody (final concentration of both antibodies: 100 nM) for 240 s, and the difference in signals before and after immersing the sensors in the mixture of the two antibodies was recorded as the signal for that antibody as the second antibody. The inhibition rate was calculated by the following equation, […]

| IC50 [1] | Maximum inhibition rate (%) [1] | IC50 [2] | Maximum inhibition rate (%) [2] | Kd [3] | koff [3] | kon [3] | Competitive inhibition rate (%) [4] | Binder |
| --- | --- | --- | --- | --- | --- | --- | --- | --- |
| 8.56 nM | 104% | 1.52 nM | 101% | 2.94 nM | 0.000115 s⁻¹ | 39000 M⁻¹ s⁻¹ | 109% | PR003264 (antibody, human IgG1, kappa, Human IgG1; also called 77G10D3) heavy: not shown light: DIQLTQSPSFLSASVGDRVTITCRASQGISSYFAWYQQKPGKAPKLLIYAASTLQSGVPSRFSGSGSGTEFTLTISSLQPEDFATYYCQHLNRYPWTFGQGTKVEIKRTVAAPSVFIFPPSDEQLKSGTASVVCLLNNFYPREAKVQWKVDNALQSGNSQESVTEQDSKDSTYSLSSTLTLSKADYEKHKVYACEVTHQGLSSPVTKSFNRGEC |
| 8.77 nM | 99.9% | – | – | – | – | – | – | PR004263 (antibody, human IgG1, kappa, L234A L235A, Variant of PR003264; Human IgG1 with LALA mutation in Fc) heavy: not shown light: DIQLTQSPSFLSASVGDRVTITCRASQGISSYFAWYQQKPGKAPKLLIYAASTLQSGVPSRFSGSGSGTEFTLTISSLQPEDFATYYCQHLNRYPWTFGQGTKVEIKRTVAAPSVFIFPPSDEQLKSGTASVVCLLNNFYPREAKVQWKVDNALQSGNSQESVTEQDSKDSTYSLSSTLTLSKADYEKHKVYACEVTHQGLSSPVTKSFNRGEC |
| 8.51 nM | 96.2% | – | – | – | – | – | – | PR004260 (antibody, human IgG1, kappa, L234A L235A, Variant of PR003181; Human IgG1 with LALA mutation in Fc) heavy: not shown light: DIVMSQSPSSLAVSAGEKVTMSCKSSQSLLNSRTRKNQLAWYQQKPGQSPKLLIYWASTRESGVPDRFTGSGSGTDFTLTISSVQAEDLAVYYCKQSYNLRTFGGGTKLEIKRTVAAPSVFIFPPSDEQLKSGTASVVCLLNNFYPREAKVQWKVDNALQSGNSQESVTEQDSKDSTYSLSSTLTLSKADYEKHKVYACEVTHQGLSSPVTKSFNRGEC |
| 6.34 nM | 96.4% | 1.24 nM | 16.2% | 6.7 nM | 0.000632 s⁻¹ | 94300 M⁻¹ s⁻¹ | -6.54% | PR003251 (antibody, human IgG1, kappa, V domains shown, Human IgG1; also called 29F2C8) VH: QVQLVESGGGVVQPGRSLRLSCAVSGFTFSRYGMHWVRQAPGKGLDWVAVIWYNGNNKYYTDSVKGRFTISRDNSKNTLFLQMNSLRAEDTAVYYCARDGAYSYGPFDYWGQGTLVTVSS VL: not shown |
| 7.18 nM | 97.2% | 1.59 nM | 27.4% | 32.3 nM | 0.00245 s⁻¹ | 75600 M⁻¹ s⁻¹ | -5.96% | PR003254 (antibody, human IgG1, kappa, V domains shown, Human IgG1; also called 59D6D2) VH: QVQLVESGGGVVQPGRSLRLSCAASGFTFSSYGMHWVRQAPGKGLEWVADIWYNGNNKYYADSVKGRFTISRDNSKNTLYLQMNSLRAEDTALYYCARDGGYSYGPFDYWGQGTLVTVSS VL: not shown |
| 9.93 nM | 105% | 3.37 nM | 26.4% | 1.55 nM | 0.000117 s⁻¹ | 75500 M⁻¹ s⁻¹ | -2.6% | PR003262 (antibody, human IgG1, kappa, V domains shown, Human IgG1; also called 77D5A4) VH: QVQLVESGGGVVQPGRSLRLSCAASGFTFSRYGIHWVRQAPGKGLEWVAVIWYNGRNKYYVDSVKGRFTISRDNSKNTLYLQMNSLRAEDTAVYYCARDGGYSYGPFDYWGQGTLVTVSS VL: EIVMTQSPATLSVSPGERATLSCRASQSFSNNLAWYQQKPGQAPRLLIYGASTRATGIPARFSGSGSGTEFTLTISSLQSEDFAVYYCHQYNIWPLTFGGGTKVEIKR |
| 6.46 nM | 106% | 2.47 nM | 20.4% | 1.68 nM | 0.000102 s⁻¹ | 61100 M⁻¹ s⁻¹ | -3.18% | PR003260 (antibody, human IgG1, kappa, V domains shown, Human IgG1; also called 70F3B1) VH: QVQLVESGGGVVQPGRSLRLPCAASGFTFSRYGMHWVRQAPGKGLEWVADIWYDGSKKYYADSVKGRFTISRDNSKNTLYLQMNSLRAEDTAVYFCTRDGGYSYGPFDYWGQGTLVTVSS VL: EIVMTQSPATLSVSPGERATLSCRASQSVSSNLAWYQQKPGQAPRLLIYYASTRAPGIPARFSGSESGTEFTLTISSLQSEDFAVYYCQQYNIWPYTFGQGTKLEIKR |
| 6.23 nM | 103% | 1.7 nM | 59.3% | 5.44 nM | 0.000441 s⁻¹ | 81100 M⁻¹ s⁻¹ | -0.324% | PR003263 (antibody, human IgG1, kappa, V domains shown, Human IgG1; also called 77E6C4) VH: QVQLVESGGGVVQPGRSLRLSCAASGFTFSYYGLNWVRQAPGKGLEWVAVIWFDGTNKYYADSVKGRFTISRDDSKNTLYLQMNSLRAEDTAVYYCARGYGSGSYYNYVMDAWGQGASVTVSS VL: EIVMTQSPATLSVSPGERATLSCRASQSVSSNLAWYQQKPGQAPRLLIYGASTGATGIPARFSGSGSGTDFTLTISSLQSEDFAVYYCQQYYKWPLTFGGGTKVEIKR |
